Positions count from the first letter of the chain named. Names may count otherwise.
Key:
[1] = biological target: DONSON WM (W234L; M463T) (Xenopus laevis) (UniProt Q5U4U4); assay: mass photometry; protein concentration varied (Figure S7); DONSON WM at 20 nM; monomer to dimer
[2] = biological target: the molecule itself; assay: mass photometry; recombinant DONSON proteins diluted ten-fold into Dulbecco PBS to a final concentration of 3 to 5 nM; TwoMP (Refeyn); monomer to dimer
[3] = biological target: T1, recombinant FLAG5, His6-tagged GINS (Psf1, Psf2, Psf3 and Sld5) (Xenopus laevis, UniProt Q7ZT47 1-196; Q7ZT46 1-185; Q7ZT01 1-210; Q7ZT48 1-221); assay: co-IP; recombinant FLAG-tagged GINS immunoprecipitated after incubation with recombinant DONSON variants; blot with an anti-DONSON antibody (Figure S5B); conditions: both partners purified
T1 construct: Psf1, subunit of GINS, Xenopus laevis; Psf2, subunit of GINS, Xenopus laevis; Psf3, subunit of GINS, Xenopus laevis; Sld5, subunit of GINS, Xenopus laevis; also called recombinant GINS; FLAG-tagged GINS; copies: + + +
T1 sequence (looked up) 1: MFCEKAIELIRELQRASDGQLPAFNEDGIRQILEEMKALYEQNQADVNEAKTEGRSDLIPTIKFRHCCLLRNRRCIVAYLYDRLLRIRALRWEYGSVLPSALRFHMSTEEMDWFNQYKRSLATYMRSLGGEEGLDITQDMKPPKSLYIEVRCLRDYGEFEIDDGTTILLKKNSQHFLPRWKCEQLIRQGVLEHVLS
T1 sequence (looked up) 2: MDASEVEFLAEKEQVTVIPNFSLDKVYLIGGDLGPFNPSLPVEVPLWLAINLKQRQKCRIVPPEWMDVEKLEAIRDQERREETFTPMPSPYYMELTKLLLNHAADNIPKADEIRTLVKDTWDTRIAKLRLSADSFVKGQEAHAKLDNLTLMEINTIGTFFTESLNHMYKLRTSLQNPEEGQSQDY
T1 sequence (looked up) 3: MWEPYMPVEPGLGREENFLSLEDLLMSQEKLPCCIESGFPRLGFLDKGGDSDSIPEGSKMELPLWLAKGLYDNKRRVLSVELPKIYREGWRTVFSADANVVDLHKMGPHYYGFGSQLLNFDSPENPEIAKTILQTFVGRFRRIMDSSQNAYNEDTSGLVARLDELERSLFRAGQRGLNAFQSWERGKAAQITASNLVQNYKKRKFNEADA
T1 sequence (looked up) 4: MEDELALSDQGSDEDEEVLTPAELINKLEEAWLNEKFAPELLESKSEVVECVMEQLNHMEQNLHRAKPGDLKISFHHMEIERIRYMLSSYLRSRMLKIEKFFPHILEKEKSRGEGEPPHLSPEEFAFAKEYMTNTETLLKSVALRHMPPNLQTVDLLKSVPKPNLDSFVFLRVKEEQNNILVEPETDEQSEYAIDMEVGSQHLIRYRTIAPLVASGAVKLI

Molecule: DONSON WM (W234L; M463T) (from UniProt Q5U4U4 1-579) (natural protein)
- stoichiometry N [1]: 2

B1: DONSON ΔD1 (Δ1-155) (domain or fragment, Xenopus laevis, UniProt Q5U4U4 156-579, looked up)
chain: SVTFPADWSLKTRLLFTSSHSFSWADHLKAQEEAQGLVMQCRATAVNLPHSIQEPKLSTDLRCAFQQSLVHWIHPSLPWVQLFPRIGVDRKMAGKNTPWSQDESLQQVLMSEWALSFTSLYNLLKAKLCPYFYVCTYQFTVLFRAAGLAGSDVITAVMSPTTRGLREAMKNEGITFSQPLVEDDTGKKQKKPEAASQGDINPEKENGTAEADEASDESDEDESFSWLEEMGVEDKIKKPDSISIKLRKEKNEVKLDHKPESVVLVKGTNTFTLLNFLINCKSIVAAAGLQAGLPPTLLSPVAFRGATMHALKARSVNVKTRVNSGYKDQFSLEITGPIMPHSLHSLTMLLQSAQRGSFSAGLYTHEPTAVFNTPIHSQAVKEISADLQNCGLHPCTVEQLTQVNELGKLSLRHLEMTDYRYTWK
notes: DONSON, Xenopus laevis, without residues 1-155 (the unstructured D1 loop); also called DONSON DD1 (D1-155); pET28a-DONSON ΔD1; source: recombinant (pET28a vector)
- stoichiometry N [2]: 2

B2: recombinant Xenopus laevis DONSON WT (natural protein)
chain: MAELLPGYSPSFKKPSEILRLSRRRSRSEASKTGLSPFSPGDVIKRVPGLRPFSPGPNKGAGVKRRNPFASLENTVCSPVKRRAETVAEYGAASLEPRALSAVRPSCLGQDSPEPPQFNSVEDVIWGDPLAADADPLVKTESPEKPAPACEIPKGSVTFPADWSLKTRLLFTSSHSFSWADHLKAQEEAQGLVMQCRATAVNLPHSIQEPKLSTDLRCAFQQSLVHWIHPSLPWVQLFPRIGVDRKMAGKNTPWSQDESLQQVLMSEWALSFTSLYNLLKAKLCPYFYVCTYQFTVLFRAAGLAGSDVITAVMSPTTRGLREAMKNEGITFSQPLVEDDTGKKQKKPEAASQGDINPEKENGTAEADEASDESDEDESFSWLEEMGVEDKIKKPDSISIKLRKEKNEVKLDHKPESVVLVKGTNTFTLLNFLINCKSIVAAAGLQAGLPPTLLSPVAFRGATMHALKARSVNVKTRVNSGYKDQFSLEITGPIMPHSLHSLTMLLQSAQRGSFSAGLYTHEPTAVFNTPIHSQAVKEISADLQNCGLHPCTVEQLTQVNELGKLSLRHLEMTDYRYTWK
notes: DONSON (Downstream neighbor of Son), Xenopus laevis; also called WT DONSON; WT recombinant DONSON; source: E. coli BL21 (DE3), purified (Ni-NTA)
- stoichiometry N [2]: 2
- binding result [3]: binds

B3: DONSON S437A (natural protein, Xenopus laevis)
chain: B2 chain with S437A
notes: DONSON, Xenopus laevis; also called DONSON Ser437Ala; pET28a-DONSON-S437A; source: E. coli BL21 (DE3), purified (Ni-NTA)
- stoichiometry N [2]: 2

B4: DONSON DEW (D374A; E377A; W381A) (natural protein, Xenopus laevis)
chain: B2 chain with D374A, E377A, W381A
notes: DONSON, Xenopus laevis; also called pET28a-DONSON-DEW; source: E. coli BL21 (DE3), purified (Ni-NTA)
- stoichiometry N [2]: 2

B5: DONSON DEWS (D374A; E377A; W381A; S437A) (natural protein, Xenopus laevis)
chain: B2 chain with D374A, E377A, W381A, S437A
notes: DONSON, Xenopus laevis; also called pET28a-DONSON-DEWS; source: E. coli BL21 (DE3), purified (Ni-NTA)
- stoichiometry N [2]: 2

B6: DONSON 3A (V473A; R476A; Y481A) (natural protein, Xenopus laevis)
chain: B2 chain with V473A, R476A, Y481A
notes: DONSON, Xenopus laevis; also called pET28a-DONSON-3A; source: E. coli BL21 (DE3), purified (Ni-NTA)
- stoichiometry N [2]: 2
- binding result [3]: binds

B7: DONSONΔ24 (truncation of residues 1–24) (domain or fragment, Xenopus laevis, UniProt Q5U4U4 25-579, looked up)
chain: RSRSEASKTGLSPFSPGDVIKRVPGLRPFSPGPNKGAGVKRRNPFASLENTVCSPVKRRAETVAEYGAASLEPRALSAVRPSCLGQDSPEPPQFNSVEDVIWGDPLAADADPLVKTESPEKPAPACEIPKGSVTFPADWSLKTRLLFTSSHSFSWADHLKAQEEAQGLVMQCRATAVNLPHSIQEPKLSTDLRCAFQQSLVHWIHPSLPWVQLFPRIGVDRKMAGKNTPWSQDESLQQVLMSEWALSFTSLYNLLKAKLCPYFYVCTYQFTVLFRAAGLAGSDVITAVMSPTTRGLREAMKNEGITFSQPLVEDDTGKKQKKPEAASQGDINPEKENGTAEADEASDESDEDESFSWLEEMGVEDKIKKPDSISIKLRKEKNEVKLDHKPESVVLVKGTNTFTLLNFLINCKSIVAAAGLQAGLPPTLLSPVAFRGATMHALKARSVNVKTRVNSGYKDQFSLEITGPIMPHSLHSLTMLLQSAQRGSFSAGLYTHEPTAVFNTPIHSQAVKEISADLQNCGLHPCTVEQLTQVNELGKLSLRHLEMTDYRYTWK
notes: DONSON, Xenopus laevis, without residues 1-24; See the note of m17 on a possible Myc tag; also called DONSON D24 (D1-24); pET28a-DONSON Δ24 (1-24 removed); source: E. coli BL21 (DE3), purified (Ni-NTA)
- stoichiometry N [2]: 2

Reference: PMC7616792, “The structural mechanism of dimeric DONSON in replicative helicase activation” (Molecular cell, 2023)
